The results in this text go back to patent publication US7657380.

Experiment [1] deals with GST-fused human V158 FcγRIIIa (extracellular region) (human) (UniProt P08637). Nature of the experiment: SPR, GST-FcγRIIIa V158 on chip.
Experiment [2] shares this target. Nature of the experiment: AlphaScreen competition vs biotin-WT AC10.

Sequence of GST-fused human V158 FcγRIIIa (extracellular region) (human) (P08637 17-208 F176V): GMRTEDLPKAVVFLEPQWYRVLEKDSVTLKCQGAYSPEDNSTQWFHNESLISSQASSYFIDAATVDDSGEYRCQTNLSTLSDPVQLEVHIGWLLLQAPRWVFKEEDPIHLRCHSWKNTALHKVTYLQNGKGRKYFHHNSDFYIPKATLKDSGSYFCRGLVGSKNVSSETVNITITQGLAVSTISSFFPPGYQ

In turn, AC10 WT (H0/L0) full length antibody returned a Kd in experiment [1] of 18.6 nM. In experiment [2], this substance came in with an IC50 of 87.2 nM.
